Experimental data published in the Immune Epitope Database (IEDB).
Values belong to the sequence of their own block, whether it stands above or below them.

Tests used:
HLA-A*11:01 = experiment: IEDB peptide-MHC binding, purified MHC/direct/fluorescence; filed as Kd, often an IC50 or EC50 that approximates it; ≥ and ≤ were set here for values at or beyond the usual limits of such assays
HLA-B*07:02 [1] = experiment: as above
HLA-B*18:01 = experiment: as above
HLA-B*27:05 = experiment: as above
HLA-A*26:01 [2] = experiment: as above
HLA-B*46:01 [3] = experiment: as above
HLA-A*24:02 [4] = experiment: as above
HLA-B*15:01 [5] = experiment: as above
HLA-B*08:01 = experiment: as above
HLA-B*40:01 = experiment: as above
HLA-A*01:01 = experiment: as above
HLA-A*03:01 [6] = experiment: as above
HLA-B*44:02 = experiment: as above
HLA-A*02:01 [7] = experiment: as above
HLA-A*69:01 [8] = experiment: as above
HLA-B*58:01 = experiment: as above
HLA-A*31:01 = experiment: as above
HLA-B*15:09 = experiment: as above; details: source organism: Influenza A virus (A/Taiwan/2/2006(H1N1))
HLA-B*07:02 [9] = experiment: IEDB peptide-MHC binding, purified MHC/competitive/fluorescence; ≥ and ≤ were set here for values at or beyond the usual limits of such assays; details: source organism: Zaire ebolavirus
HLA-A*24:02 [10] = experiment: as above; details: source organism: Zaire ebolavirus
HLA-B*15:01 [11] = experiment: as above; details: source organism: Zaire ebolavirus
HLA-A*26:01 [12] = experiment: IEDB peptide-MHC binding, purified MHC/competitive/fluorescence; filed as Kd, often an IC50 or EC50 that approximates it; ≥ and ≤ were set here for values at or beyond the usual limits of such assays; details: source organism: Zaire ebolavirus
HLA-B*46:01 [13] = experiment: as above; details: source organism: Zaire ebolavirus
HLA-B*15:01 [14] = experiment: as above; details: source organism: Zaire ebolavirus
HLA-B*57:01 = experiment: as above; details: source organism: Zaire ebolavirus
HLA-B*27:03 = experiment: as above; details: source organism: Zaire ebolavirus
HLA-B*51:01 = experiment: as above; details: source organism: Zaire ebolavirus
HLA-B*39:01 = experiment: as above; details: source organism: Zaire ebolavirus
HLA-A*02:01 [15] = experiment: as above; details: source organism: Zaire ebolavirus
HLA-A*69:01 [16] = experiment: as above; details: source organism: Zaire ebolavirus
HLA-A*02:12 = experiment: IEDB peptide-MHC binding, purified MHC/direct/fluorescence; filed as Kd, often an IC50 or EC50 that approximates it; ≥ and ≤ were set here for values at or beyond the usual limits of such assays; details: source organism: Zaire ebolavirus
HLA-A*24:03 = experiment: as above; details: source organism: Zaire ebolavirus
HLA-A*68:02 = experiment: as above; details: source organism: Zaire ebolavirus
HLA-A*02:03 = experiment: as above; details: source organism: Zaire ebolavirus
HLA-A*02:19 = experiment: as above; details: source organism: Zaire ebolavirus
HLA-A*29:02 [17] = experiment: as above; details: source organism: Zaire ebolavirus
HLA-A*29:02 [18] = experiment: IEDB peptide-MHC binding, purified MHC/competitive/fluorescence; filed as Kd, often an IC50 or EC50 that approximates it; ≥ and ≤ were set here for values at or beyond the usual limits of such assays; details: source organism: Campylobacter jejuni subsp. jejuni NCTC 11168 = ATCC 700819
HLA-A*02:01 [19] = experiment: IEDB peptide-MHC binding, purified MHC/competitive/fluorescence; ≥ and ≤ were set here for values at or beyond the usual limits of such assays; details: source organism: Zaire ebolavirus
HLA-A*03:01 [20] = experiment: as above; details: source organism: Zaire ebolavirus
[21] = source organism: Influenza A virus (A/Viet Nam/HN/2004(H5N1))
[22] = source organism: Influenza A virus (A/Puerto Rico/8/34/Mount Sinai(H1N1))
[23] = source organism: Influenza A virus (A/Hong Kong/507/97(H5N1))
[24] = source organism: Influenza A virus (A/swine/Korea/S190/2004(H9N2))
[25] = source organism: Influenza A virus (A/England/627/01(H1N2))
[26] = source organism: Escherichia coli O157:H7

Sequence: FRNQVKIRR
Kd (HLA-A*11:01; [21]): ≥ 20 µM
Kd (HLA-B*07:02 [1]; [21]): ≥ 20 µM
Kd (HLA-B*18:01; [21]): ≥ 20 µM
Kd (HLA-B*27:05; [22]): 0.079 µM
Kd (HLA-A*26:01 [2]; source organism: Influenza A virus(A/swine/Shandong/fNY/2003(H9N2))): ≥ 20 µM
Kd (HLA-B*46:01 [3]; [21]): ≥ 20 µM
Kd (HLA-A*24:02 [4]; [21]): ≥ 20 µM
Kd (HLA-B*15:01 [5]; [21]): ≥ 20 µM
Kd (HLA-B*08:01; [21]): ≥ 20 µM
Kd (HLA-B*40:01; [21]): ≥ 20 µM
Kd (HLA-A*01:01; [21]): ≥ 20 µM
Kd (HLA-A*03:01 [6]; [21]): ≥ 20 µM
Kd (HLA-B*44:02; [21]): ≥ 20 µM
Kd (HLA-A*02:01 [7]; [21]): ≥ 20 µM
Kd (HLA-A*69:01 [8]; [21]): ≥ 20 µM
Kd (HLA-B*58:01; [21]): ≥ 20 µM

Sequence: GTSKIKMKW
Kd (HLA-A*11:01; [23]): ≥ 20 µM
Kd (HLA-B*07:02 [1]; [23]): ≥ 20 µM
Kd (HLA-B*27:05; [23]): ≥ 20 µM
Kd (HLA-A*26:01 [2]; source organism: Influenza A virus (A/Taiwan/2/2006(H1N1))): ≥ 20 µM
Kd (HLA-B*46:01 [3]; [23]): ≥ 20 µM
Kd (HLA-A*24:02 [4]; [23]): ≥ 20 µM
Kd (HLA-B*15:01 [5]; [23]): ≥ 20 µM
Kd (HLA-B*08:01; [23]): ≥ 20 µM
Kd (HLA-B*40:01; [23]): ≥ 20 µM
Kd (HLA-A*01:01; [23]): ≥ 20 µM
Kd (HLA-A*03:01 [6]; [23]): ≥ 20 µM
Kd (HLA-B*44:02; [23]): ≥ 20 µM
Kd (HLA-A*31:01; [23]): ≥ 20 µM
Kd (HLA-A*02:01 [7]; [23]): ≥ 20 µM
Kd (HLA-A*69:01 [8]; [23]): ≥ 20 µM
Kd (HLA-B*15:09): ≥ 20 µM
Kd (HLA-B*58:01; [23]): 0.18 µM

Sequence: IPKRNRSIL
Kd (HLA-A*11:01; [24]): ≥ 20 µM
Kd (HLA-B*07:02 [1]; [22]): 0.015 µM
Kd (HLA-B*18:01; [24]): ≥ 20 µM
Kd (HLA-B*27:05; [24]): ≥ 20 µM
Kd (HLA-B*46:01 [3]; [24]): ≥ 20 µM
Kd (HLA-A*24:02 [4]; [24]): ≥ 20 µM
Kd (HLA-B*15:01 [5]; [24]): ≥ 20 µM
Kd (HLA-B*08:01; [22]): 0.268 µM
Kd (HLA-B*40:01; [24]): ≥ 20 µM
Kd (HLA-A*01:01; [24]): ≥ 20 µM
Kd (HLA-A*03:01 [6]; [24]): ≥ 20 µM
Kd (HLA-B*44:02; [24]): ≥ 20 µM
Kd (HLA-A*31:01; [24]): ≥ 20 µM
Kd (HLA-A*02:01 [7]; [24]): ≥ 20 µM
Kd (HLA-A*69:01 [8]; [24]): ≥ 20 µM
Kd (HLA-B*58:01; [24]): ≥ 20 µM

Sequence: IWARTYFFK
Kd (HLA-A*24:02 [4]; source organism: Salmonella enterica subsp. enterica serovar Choleraesuis str. SC-B67): 0.296 µM

Sequence: KIRSEELSF
IC50 (HLA-B*07:02 [9]): ≥ 173 µM
IC50 (HLA-A*24:02 [10]): ≥ 106 µM
IC50 (HLA-B*15:01 [11]): ≥ 91.7 µM

Sequence: KMARLGKGY
Kd (HLA-B*07:02 [1]; [25]): ≥ 20 µM
Kd (HLA-B*27:05; [22]): 0.379 µM
Kd (HLA-B*46:01 [3]; [25]): ≥ 20 µM
Kd (HLA-A*24:02 [4]; [25]): ≥ 20 µM
Kd (HLA-B*15:01 [5]; [22]): 0.178 µM
Kd (HLA-B*08:01; [25]): ≥ 20 µM
Kd (HLA-B*40:01; [25]): ≥ 20 µM
Kd (HLA-A*01:01; [25]): ≥ 20 µM
Kd (HLA-A*03:01 [6]; [22]): 0.252 µM
Kd (HLA-B*44:02; [25]): ≥ 20 µM
Kd (HLA-A*02:01 [7]; [25]): ≥ 20 µM
Kd (HLA-A*69:01 [8]; [25]): ≥ 20 µM
Kd (HLA-B*58:01; [25]): ≥ 20 µM

Sequence: LEFNSSLAI
Kd (HLA-A*26:01 [12]): ≥ 20 µM
Kd (HLA-B*46:01 [13]): ≥ 20 µM
Kd (HLA-B*15:01 [14]): ≥ 20 µM
Kd (HLA-B*57:01): ≥ 20 µM
Kd (HLA-B*27:03): ≥ 20 µM
Kd (HLA-B*51:01): ≥ 20 µM
Kd (HLA-B*39:01): ≥ 20 µM
Kd (HLA-A*02:01 [15]): ≥ 20 µM
Kd (HLA-A*69:01 [16]): ≥ 20 µM
Kd (HLA-A*02:12): ≥ 20 µM
Kd (HLA-A*24:03): ≥ 20 µM
Kd (HLA-A*68:02): ≥ 20 µM
Kd (HLA-A*02:03): ≥ 20 µM
Kd (HLA-B*40:01; source organism: Ebola virus - Gabon (1994-1997)): 0.0258 µM
Kd (HLA-A*02:19): ≥ 20 µM
Kd (HLA-A*03:01 [6]; source organism: Zaire ebolavirus): ≥ 20 µM
Kd (HLA-A*29:02 [17]): ≥ 20 µM

Kd (HLA-A*11:01; [26]): ≥ 20 µM
Kd (HLA-B*07:02 [1]; [26]): ≥ 20 µM
Kd (HLA-B*18:01; [26]): ≥ 20 µM
Kd (HLA-B*27:05; [26]): ≥ 20 µM
Kd (HLA-A*24:02 [4]; [26]): ≥ 20 µM
Kd (HLA-B*15:01 [5]; [26]): ≥ 20 µM
Kd (HLA-B*40:01; [26]): ≥ 20 µM
Kd (HLA-A*01:01; [26]): ≥ 20 µM
Kd (HLA-A*03:01 [6]; [26]): ≥ 20 µM
Kd (HLA-B*44:02; [26]): ≥ 20 µM
Kd (HLA-A*31:01; [26]): ≥ 20 µM
Kd (HLA-A*02:01 [7]; [26]): 0.0367 µM
Kd (HLA-B*58:01; [26]): ≥ 20 µM
Sequence: LLKLWIDKV

Sequence: LYAYWYHLY
Kd (HLA-A*29:02 [18]): 0.0008 µM

Sequence: RTRREAIVN
IC50 (HLA-B*07:02 [9]): ≥ 92.6 µM
IC50 (HLA-A*02:01 [19]): ≥ 119 µM

Sequence: RVIPVYQVN
IC50 (HLA-B*07:02 [9]): ≥ 151 µM
IC50 (HLA-A*24:02 [10]): 51.6 µM
IC50 (HLA-B*15:01 [11]): ≥ 72.8 µM
IC50 (HLA-A*03:01 [20]): ≥ 277 µM
IC50 (HLA-A*02:01 [19]): ≥ 87.2 µM

Sequence: VATAHGSTL
IC50 (HLA-B*07:02 [9]): ≥ 70.5 µM
IC50 (HLA-A*24:02 [10]): 12.7 µM
IC50 (HLA-A*02:01 [19]): ≥ 136 µM
